Experiment [1] concerns the target His6.TssA1^B CTD H12-H14 (303-358) (B. cenocepacia). Briefly: crystal structure; His6.TssA1^B CTD H12-H14 (303-358), 2.35 Å, two molecules in the asymmetric unit.
Experiment [2] has as its target His6.TssA2^A (1-478) (A. hydrophila). The experiment can be described thus: SEC-MALS; S200 10/300 column, 50 mM Tris.HCl (pH 8.0), 500 mM NaCl, ~20 °C; 4.5-6.8 mg/ml.
The target in experiment [3] is His6.TssA2^A CTD (381-478) (A. hydrophila). Described as above.
The target of experiment [4] is His6.TssA2^A Nt2 (223-387) (A. hydrophila). Briefly: crystal structure; His6.TssA2^A Nt2 (223-387), ethyl mercury phosphate derivative, 2.16 Å, two monomers in the asymmetric unit.
In experiment [5] the target is His6.TssA2^A Nt2-CTD (223-478) (A. hydrophila). The experiment can be described thus: SEC-MALS; S200 10/300 column, 50 mM Tris.HCl (pH 8.0), 500 mM NaCl, ~20 °C; 4.5-6.8 mg/ml.
Experiment [6] has the same target. Briefly: crystal structure; His6.TssA2^A Nt2-CTD (223-478), 3.13 Å, ten subunits in the asymmetric unit.
Experiment [7] has as its target Native TssA1^B (1-373) (B. cenocepacia). The experiment can be described thus: SEC-MALS; Superose-6 10/300 column, 10 mM phosphate buffer (pH 7.4), 2.7 mM KCl, 137 mM NaCl, ~20 °C.
In experiment [8] the target is TssA1^B CTD (303-373) (B. cenocepacia). Briefly: crystal structure; TssA1^B CTD (303-373), 3.08 Å, spacegroup I222, eight monomers in the asymmetric unit.
Experiment [9] deals with TssA1^B CTD fragment (303-347) (B. cenocepacia). Briefly: crystal structure; TssA1^B CTD fragment 303-347 (clipped 303-373 construct), 1.78 Å, spacegroup I222.
Experiment [10] deals with TssA2^A Nt1-Nt2.His6 (231-374) (A. hydrophila). The experiment can be described thus: crystal structure; TssA2^A Nt2 (231-374) from the Nt1-Nt2.His6 construct, 1.76 Å, four molecules in the asymmetric unit.

“His6.TssA1^B CTD H12-H14 (303-358) (domain or fragment)” returned a stoichiometry N in experiment [1] of 2.

In turn, His6.TssA2^A (1-478) (natural protein) had a stoichiometry N in experiment [2] of 10.

In the case of “His6.TssA2^A CTD (381-478) (domain or fragment)”, the stoichiometry N in [3] worked out at 10.

“His6.TssA2^A Nt2 (223-387) (domain or fragment)”: the stoichiometry N in [4] was 2.

With “His6.TssA2^A Nt2-CTD (223-478) (domain or fragment)”, the stoichiometry N in experiment [5] and in [6] was 10 in each case.

Turning to “Native TssA1^B (1-373) (natural protein)”, the stoichiometry N in experiment [7] turned out to be 30 subunits.

In [8], “TssA1^B CTD (303-373) (domain or fragment)” showed a stoichiometry N of 32 subunits.

With “TssA1^B CTD fragment (303-347) (domain or fragment)”, in experiment [9], the stoichiometry N was determined as 2.

“TssA2^A Nt1-Nt2.His6 (231-374) (domain or fragment)” displayed a stoichiometry N in [10] of 2.

The values above are taken from publication PMC6232143.
